The values that follow come from patent US7122374.

What all share (assay): ELISA, peptide coated at 1 µg/mL, mAb4G8 diluted 1000 times, HRP anti-mouse Igs
A general note: ELISA stands for enzyme-linked immunosorbent assay.

Assay [1] addresses AβN3pE-42.
The target of assay [2] is Aβ1-40.
The target in assay [3] is AβN3E-42.
Chain of AβN3E-42 (peptide, as listed by the source): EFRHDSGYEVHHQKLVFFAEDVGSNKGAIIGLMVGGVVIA

Chain of Aβ1-40 (peptide, as listed by the source): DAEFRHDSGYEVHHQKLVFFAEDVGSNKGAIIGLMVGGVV

For the substance “monoclonal antibody mAb4G8 (SENETEC Inc)”, the absorbance at 450 nm in assay [1] is 2.27 A450; in assay [2], 1.57 A450; in assay [3], 1.39 A450.
